# Assay results from patent US20240400715A1.
# Experiments:
# [1] = biological target: EGFR-CD3 bispecific antibody 401; assay: BLI self-interaction: antibody captured on AHQ anti-human Fc sensor, free sites blocked with human IgG, same antibody in solution
# [2] = biological target: HER2-CD3 bispecific antibody 504; assay: as above
BLI-Response (self-interaction signal) [1],BLI-Response (self-interaction signal) [2],Binder
0.043 nm,,"EGFR-CD3 bispecific antibody 401 (bispecific antibody, human IgG4 S228P, kappa, F234A L235A) heavy: EVKLLESGGGLVQPKGSLKLSCAASGFTFNTYAMNWVRQAPGKGLEWVARIRSKYNNYATYYADSVKDRFTISRDDSQSILYLQMNNLKTEDTAMYYCVRHGNFGNSYVSWFAYWGQGTLVTVSSASTKGPSVFPLAPCSRSTSESTAALGCLVKDYFPEPVTVSWNSGALTSGVHTFPAVLQSSGLYSLSSVVTVPSSSLGTKTYTCNVDHKPSNTKVDKRVESKYGPPCPPCPAPEAAGGPSVFLFPPKPKDTLMISRTPEVTCVVVDVSQEDPEVQFNWYVDGVEVHNAKTKPREEQFNSTYRVVSVLTVLHQDWLNGKEYKCKVSNKGLPSSIEKTISKAKGQPREPQVYTLPPCQEEMTKNQVSLWCLVKGFYPSDIAVEWESNGQPENNYKTTPPVLDSDGSFFLYSRLTVDKSRWQEGNVFSCSVMHEALHNHYTQKSLSLSL QVQLQESGGGSVQAGGSLKLSCAASGRGFSRYAMGWFRQAPGQDREFVATISWTNSTDYADSVKGRFAISRDNAKNTAYLQMNSLKPEDTAVYYCAADKWASSTRSIDYDYWGQGIQVTVSSESKYGPPCPPCPAPEAAGGPSVFLFPPKPKDTLMISRTPEVTCVVVDVSQEDPEVQFNWYVDGVEVHNAKTKPREEQFNSTYRVVSVLTVLHQDWLNGKEYKCKVSNKGLPSSIEKTISKAKGQPREPQVCTLPPSQEEMTKNQVSLSCAVKGFYPSDIAVEWESNGQPENNYKTTPPVLDSDGSFFLVSRLTVDKSRWQEGNVFSCSVMHEALHNRFTQKSLSLSL light: QAVVTQESALTTSPGETVTLTCRSSTGAVTTSNYANWVQEKPDHLFTGLIGGTNKRAPGVPARFSGSLIGDKAALTITGAQTEDEAIYFCALWYSNLWVFGGGTKVEIKRTVAAPSVFIFPPSDEQLKSGTASVVCLLNNFYPREAKVQWKVDNALQSGNSQESVTEQDSKDSTYSLSSTLTLSKADYEKHKVYACEVTHQGLSSPVTKSFNRGEC"
,0.07 nm,"HER2-CD3 bispecific antibody 504 (bispecific antibody, human IgG4 S228P, kappa, F234A L235A) QVQLVQSGGGLVQAGGSLRLSCAASGRTFSSYAMAWFRQAPGKEREFVAAISWSGANIYVADSVKGRFTISRDNAKDTVYLQMNSLKPEDTAVYYCAVKLGFAPVEERQYDYWGQGTQVTVSSESKYGPPCPPCPAPEAAGGPSVFLFPPKPKDTLMISRTPEVTCVVVDVSQEDPEVQFNWYVDGVEVHNAKTKPREEQFNSTYRVVSVLTVLHQDWLNGKEYKCKVSNKGLPSSIEKTISKAKGQPREPQVYTLPPCQEEMTKNQVSLWCLVKGFYPSDIAVEWESNGQPENNYKTTPPVLDSDGSFFLYSRLTVDKSRWQEGNVFSCSVMHEALHNHYTQKSLSLSL heavy: EVKLLESGGGLVQPKGSLKLSCAASGFTFNTYAMNWVRQAPGKGLEWVARIRSKYNNYATYYADSVKDRFTISRDDSQSILYLQMNNLKTEDTAMYYCVRHGNFGNSYVSWFAYWGQGTLVTVSSASTKGPSVFPLAPCSRSTSESTAALGCLVKDYFPEPVTVSWNSGALTSGVHTFPAVLQSSGLYSLSSVVTVPSSSLGTKTYTCNVDHKPSNTKVDKRVESKYGPPCPPCPAPEAAGGPSVFLFPPKPKDTLMISRTPEVTCVVVDVSQEDPEVQFNWYVDGVEVHNAKTKPREEQFNSTYRVVSVLTVLHQDWLNGKEYKCKVSNKGLPSSIEKTISKAKGQPREPQVCTLPPSQEEMTKNQVSLSCAVKGFYPSDIAVEWESNGQPENNYKTTPPVLDSDGSFFLVSRLTVDKSRWQEGNVFSCSVMHEALHNRFTQKSLSLSL light: QAVVTQESALTTSPGETVTLTCRSSTGAVTTSNYANWVQEKPDHLFTGLIGGTNKRAPGVPARFSGSLIGDKAALTITGAQTEDEAIYFCALWYSNLWVFGGGTKVEIKRTVAAPSVFIFPPSDEQLKSGTASVVCLLNNFYPREAKVQWKVDNALQSGNSQESVTEQDSKDSTYSLSSTLTLSKADYEKHKVYACEVTHQGLSSPVTKSFNRGEC"
